Residue numbers refer to the chain shown, from its start. Numbers in names are those of the source.
What was measured:
[1] = system: CD8+/CD4− gated and CD4+ gated T cells; assay: Multi-colour FACS on TH1 activated T cells gated for CD8 or CD4; format: binding, human; conditions: donor D838; anti-flag-APC detection
Experimental: To elucidate if CD4-IL12R bispecific polypeptides preferentially bind to the CD4+/IL12R+ TH1 cell subset within the pool of T cells, Nanobody binding was analysed to a pool of activated T cells gated for either CD8 (detected by Anti-hu CD8 PE-Cy7 conjugated monoclonal antibody (BD 557746) or CD4 (detected by Anti-hu CD4 alexa Fluor 488-conjugated polyclonal antibody (R&D FAB8165G) in a multi-colour FACS experiment. Nanobody binding to the CD8+/CD4− gated cells and to CD4+ gated cells was determined using anti-flag-APC (Prozyme PJ255) detection. In this experiment TH1 activated T cells from the same donor (D838) as shown in FIG. 3.6 were used.

[2] = target: T1, human IL12Rβ2 extracellular domain Fc-fusion (Homo sapiens, UniProt Q99665); assay: SPR (Biacore T100) on IL12Rβ2-Fc; format: binding
T1 construct: Fc-fusions of human IL12Rβ1, IL12Rβ2 and IL-23R extracellular domains; purchased R&D Systems #1959-B2
T1 sequence (Q99665 24-622 limits assumed): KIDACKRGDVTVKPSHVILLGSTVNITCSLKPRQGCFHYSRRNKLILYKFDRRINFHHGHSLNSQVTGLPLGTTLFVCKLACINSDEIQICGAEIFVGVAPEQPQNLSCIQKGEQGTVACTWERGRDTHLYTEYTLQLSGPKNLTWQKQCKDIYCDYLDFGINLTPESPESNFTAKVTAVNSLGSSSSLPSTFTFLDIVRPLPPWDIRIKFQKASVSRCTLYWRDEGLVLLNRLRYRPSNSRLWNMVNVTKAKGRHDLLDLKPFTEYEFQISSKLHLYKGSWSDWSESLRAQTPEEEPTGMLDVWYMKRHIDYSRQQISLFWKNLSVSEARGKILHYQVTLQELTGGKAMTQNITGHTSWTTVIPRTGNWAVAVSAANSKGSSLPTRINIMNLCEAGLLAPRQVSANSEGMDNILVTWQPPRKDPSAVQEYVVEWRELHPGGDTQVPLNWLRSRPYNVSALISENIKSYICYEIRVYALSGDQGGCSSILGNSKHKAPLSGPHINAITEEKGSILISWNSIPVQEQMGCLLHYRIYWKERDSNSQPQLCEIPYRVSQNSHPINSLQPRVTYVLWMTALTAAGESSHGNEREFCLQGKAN
Experimental: (§1) The precise binding affinities of the purified Nanobodies were determined in a multi-cycle kinetic analysis using Surface Plasmon Resonance analysis (Biacore T100) on Fc-fusions of human IL12Rβ1, IL12Rβ2 and IL-23R extracellular domains (R&D Systems, #839-B1, #1959-B2, #1400-IR). Sensorchips CM5 were immobilized with anti-hIgG antibody (GE Healthcare, BR-1008-39), after which receptors were captured at 5 μg/ml protein and contact time of 120 seconds. Running buffer used was HBS-EP+ (GE Healthcare, BR-1006-69) at 25° C., with a flow-rate of […]. For immobilization by amine coupling, EDC/NHS was used for activation and ethanolamine HCl for deactivation (Biacore, amine coupling kit). Nanobodies were evaluated at a concentration range between 1.37 nM and 3 μM. Nanobodies were allowed to associate for 2 min and to dissociate for 15 min at a flow rate of […]. In between injections, the surfaces were regenerated with a 3 min pulse of 3M MgCl2 and 2 min stabilization period. Evaluation of the association/dissociation data was performed by fitting a 1:1 interaction model (Langmuir binding model) by Biacore TWO software v2.0.3.

[3] = target: T2, human IL-23R extracellular domain Fc-fusion (Homo sapiens, UniProt Q5VWK5); assay: SPR (Biacore T100) on IL-23R-Fc; format: binding
T2 construct: Fc-fusions of human IL12Rβ1, IL12Rβ2 and IL-23R extracellular domains; purchased R&D Systems #1400-IR
T2 sequence (Q5VWK5 24-355 limits assumed): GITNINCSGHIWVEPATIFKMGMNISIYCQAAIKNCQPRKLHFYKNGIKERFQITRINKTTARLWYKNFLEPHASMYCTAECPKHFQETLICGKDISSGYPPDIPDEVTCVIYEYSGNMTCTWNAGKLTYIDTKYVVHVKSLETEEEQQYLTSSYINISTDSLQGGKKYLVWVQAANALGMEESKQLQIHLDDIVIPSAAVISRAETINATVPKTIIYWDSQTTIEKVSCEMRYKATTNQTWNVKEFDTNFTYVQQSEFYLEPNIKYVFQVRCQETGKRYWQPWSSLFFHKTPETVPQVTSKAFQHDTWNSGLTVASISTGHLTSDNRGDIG
Experimental: as §1

hCEACAM5 = target: T3, hCEACAM5 (Homo sapiens, UniProt P06731); assay: SPR (Biacore T100) on hCEACAM-5; format: binding
T3 construct: purchased R&D Systems 4128-CM
T3 sequence (P06731 35-676): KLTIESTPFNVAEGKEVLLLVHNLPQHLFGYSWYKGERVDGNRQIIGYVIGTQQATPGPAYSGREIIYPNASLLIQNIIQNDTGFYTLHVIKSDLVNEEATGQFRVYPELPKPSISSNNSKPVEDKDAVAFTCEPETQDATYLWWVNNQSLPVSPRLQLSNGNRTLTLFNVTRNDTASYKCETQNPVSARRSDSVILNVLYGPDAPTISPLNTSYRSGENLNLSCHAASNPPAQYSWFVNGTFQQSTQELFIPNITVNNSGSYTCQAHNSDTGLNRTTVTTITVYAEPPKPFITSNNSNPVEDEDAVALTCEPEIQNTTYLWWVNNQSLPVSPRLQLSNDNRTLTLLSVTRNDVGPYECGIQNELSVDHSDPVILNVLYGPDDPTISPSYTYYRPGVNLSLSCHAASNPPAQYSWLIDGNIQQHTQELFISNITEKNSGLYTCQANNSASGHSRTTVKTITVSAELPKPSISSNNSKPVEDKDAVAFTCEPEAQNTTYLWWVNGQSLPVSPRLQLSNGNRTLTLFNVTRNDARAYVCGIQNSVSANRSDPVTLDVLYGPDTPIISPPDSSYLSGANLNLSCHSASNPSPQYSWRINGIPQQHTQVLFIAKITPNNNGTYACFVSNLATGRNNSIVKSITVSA
Experimental: In between injections, the surfaces were regenerated with a 5 sec pulse of 10 mM Glycine-HCl pH1.5 and 1 min stabilization period. Evaluation of the association/dissociation data was performed by fitting a 1:1 interaction model (Langmuir binding model) by Biacore T100 software v2.0.3. The affinity constant KD was calculated from resulting association and dissociation rate constants ka and kd and are shown in Table 4.2. The observed affinity of the NbCEA5 Nanobody (designated as CEA#1) and humanised variant (CEA#2) was in line with the reported value.

[4] = target: T4, recombinant IL-3Rα ectodomain (Homo sapiens, UniProt P26951); assay: SPR (ProteOn) on recombinant IL-3Rα ectodomain; format: binding
T4 construct: Immobilisation of recombinant IL-3Rα ectodomain (Sino Biologicals) was done until 761 RU; purchased Sino Biologicals
T4 sequence (P26951 19-305 limits assumed): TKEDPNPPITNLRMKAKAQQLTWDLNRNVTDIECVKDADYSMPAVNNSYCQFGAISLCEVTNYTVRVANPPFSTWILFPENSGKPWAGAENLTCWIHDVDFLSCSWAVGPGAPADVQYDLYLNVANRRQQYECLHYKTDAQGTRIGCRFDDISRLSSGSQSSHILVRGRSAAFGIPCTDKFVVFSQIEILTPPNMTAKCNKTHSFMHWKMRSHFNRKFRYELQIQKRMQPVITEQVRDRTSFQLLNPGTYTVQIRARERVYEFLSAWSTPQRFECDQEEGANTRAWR
Experimental: The affinities of CD123 specific Nanobodies were further investigated via Surface Plasmon Resonance (SPR) at ProteOn. Immobilisation of recombinant IL-3Rα ectodomain (Sino Biologicals) was done until 761 RU. The Nanobodies were applied at a highest concentration of 1 μM, followed by a three-fold titration, covering 5 further concentrations ranging from 1 μM to 4.1 nM. These were then applied in a single injection cycle, utilising the ProteOn's specific one-shot kinetics approach for kinetic analysis. Evaluation of the association/dissociation data was performed by fitting a 1:1 interaction model (Langmuir binding model). […] For CD123 Nanobodies the obtained KD values correlated well with the apparent affinities retrieved by cell binding EC50 values (see Table 3).

B1: IL12Rb2#1: IL-12Rβ2 specific ligand competing Nanobody (protein)
VHH: EVQLVESGGRLVQAGDSLRLSCAASGRTFISYRMGWFRQAPGKEREFVAALRWSSSNIDYTYYADSVKGRFSISGDYAKNTVYLQMNSLKAEDTAVYYCAASTRWGVMESDTEYTSWGQGTLVTVSS
binding to CD4+ gated and CD8+ gated T cells [1]: low fluorescence signals to both CD4+ and CD8+ cells | Binding kinetics (SPR) ka (1/Ms), IL12Rβ2 [2]: 210000 M⁻¹ s⁻¹ | Binding kinetics (SPR) kd (1/s), IL12Rβ2 [2]: 0.00057 s⁻¹

B2: IL23R#19: IL-23R specific ligand competing Nanobody (protein)
VHH: EVQLVESGGGLVQPGGSLTLSCVASGRTFSTDVMGWFRQAPGKEREFVAAHRTSGISTVYAASVKGRFTISRDNAKNTVYLGMKSLKPEDTAVYVCAAGSDASGGYDYWGQGTLVTVSS
Binding kinetics (SPR) ka (1/Ms), IL-23R [3]: 730000 M⁻¹ s⁻¹ | Binding kinetics (SPR) kd (1/s), IL-23R [3]: 0.0081 s⁻¹

B3: IL12Rb2#2: IL-12Rβ2 specific ligand competing Nanobody (protein)
VHH: B1 VHH with I30T, A49S, S56G
Binding kinetics (SPR) ka (1/Ms), IL12Rβ2 [2]: 270000 M⁻¹ s⁻¹ | Binding kinetics (SPR) kd (1/s), IL12Rβ2 [2]: 0.0018 s⁻¹

B4: CEA#5: NbCEA5(K43Q, G47A, T73N, V78L) (protein)
VHH: EVQLVESGGGSVQAGGSLRLSCAASGDTYGSYWMGWFRQAPGQEREAVAAINRGGGYTVYADSVKGRFTISRDNAKNTLYLQMNSLRPDDTADYYCAASGVLGGLHEDWFNYWGQGTLVTVSS
hCEACAM5 ka (hCEACAM5): 1.1e+06 M⁻¹ s⁻¹ | hCEACAM5 kd (hCEACAM5): 0.0033 s⁻¹

B5: CEA#2: humanised NbCEA5 variant (S11L, A14P, K43Q, E44G, R45L, G47A, T73N, A74S, V78L, P84A, D85E, D89V) (protein)
VHH: B4 VHH with S11L, A14P, E44G, R45L, A75S, P88A, D89E, D93V
hCEACAM5 ka (hCEACAM5): 1.3e+06 M⁻¹ s⁻¹ | hCEACAM5 kd (hCEACAM5): 0.0025 s⁻¹

B6: 51D09: CD123 building block, SEQ ID NO: 10 (protein)
VHH: EVQLVESGGGLVQPGGSLRLSCAASGSIFSGNTMGWYRQAPGKQRELVAAISSGGSTDYADSVKGRFTISRDNSKNTVYLQMNSLRPEDTAVYYCNAAILLYRLYGYEEGDYWGLGTLVTVSS
SPR - IL-3Ra ka [4]: 37800 M⁻¹ s⁻¹ | SPR - IL-3Ra kd [4]: 0.000516 s⁻¹

B7: 55C05: CD123 building block, SEQ ID NO: 11 (protein)
VHH: EVQLVESGGGLVPAGDSLRLSCVASGRSLNTYTMGWFRQAPGKECEFVAAINWNGVYRDYADSAKGRFTASRDNAMNTVFLQMNSLKPEDTAVYFCATATQGWDRHTEPSDFGSWGLGTQVTVSS
SPR - IL-3Ra ka [4]: 126000 M⁻¹ s⁻¹ | SPR - IL-3Ra kd [4]: 0.00741 s⁻¹

B8: 50F07: CD123 building block, SEQ ID NO: 12 (protein)
VHH: EVQLVESGGGLVQPGGSLRLSCTGSGSTFSINAMGWYRQAPGKQRELVAAITSGGRTNYADSVKGRFTISRDNSKNTVYLQMNSLRPEDTAVYYCNARISAGTAFWLWSDYEYWGLGTLVTVSS
SPR - IL-3Ra ka [4]: 102000 M⁻¹ s⁻¹ | SPR - IL-3Ra kd [4]: 0.00758 s⁻¹

B9: 55F03: CD123 building block, SEQ ID NO: 13 (protein)
VHH: EVQLVESGGGLVQAGGPLRLSCAASGRTFSSYVMGWFRQAPGKEREFVAAIYWSNGKTQYTDSVKGRFTISGDNAKNTVYLQMNSLNPEDTAVYYCVADKDETGFRTLPIAYDYWGLGTQVTVSS
SPR - IL-3Ra ka [4]: 42500 M⁻¹ s⁻¹ | SPR - IL-3Ra kd [4]: 0.00487 s⁻¹

B10: 55B04: CD123 building block, SEQ ID NO: 9 (protein)
VHH: EVQLVESGGGLVQPGGSLRLSCAASGINFRFNSMGWWRRRAPGKEREWVAAITSGDITNYRDSVRGRFTISRDNVKNTVYLQMNTLKLEDTAVYYCNTFPPIADYWGLGTQVTVSS
SPR - IL-3Ra ka [4]: 504000 M⁻¹ s⁻¹ | SPR - IL-3Ra kd [4]: 0.00794 s⁻¹
